According to publication PMC6329974 (Proceedings of the National Academy of Sciences of the …, 2018):

B1: CP α-subunit from Archaeoglobus fulgidus (natural protein, UniProt O29760 1-246, looked up)
chain: MHLPQMGYDRAITVFSPDGRLFQVEYAREAVKRGATAIGIKCKEGVILIADKRVGSKLLEADTIEKIYKIDEHICAATSGLVADARVLIDRARIEAQINRLTYDEPITVKELAKKICDFKQQYTQYGGVRPFGVSLLIAGVDEVPKLYETDPSGALLEYKATAIGMGRNAVTEFFEKEYRDDLSFDDAMVLGLVAMGLSIESELVPENIEVGYVKVDDRTFKEVSPEELKPYVERANERIRELLKK
B2: proteasome-activating nucleotidase (PAN) from Archaeoglobus fulgidus (enzyme, UniProt O28303 1-398, looked up)
chain: MGDSEIQYLLEKLKKLEEDYYKLRELYRRLEDEKKFIESERIRYEREVRRLRSEVERLRSPPLLVGVVSDILEDGRVVVKSSTGPKFVVNTSQYINEEELKPGARVALNQQTLAIVNVLPTSKDPMVYGFEVEEKPEVSYEDIGGLDVQIEEIREAVELPLLKPELFAEVGIEPPKGVLLYGPPGTGKTLLAKAVANQTRATFIRVVGSEFVQKYIGEGARLVREVFQLAKEKAPSIIFIDELDAIAARRTNSDTSGDREVQRTMMQLLAELDGFDPRGDVKVIGATNRIDILDPAILRPGRFDRIIEVPLPTFEGRIQIFKIHTRKMKLAEDVDFKELARITEGASGADIKAICTEAGMFAIREERAKVTMLDFTKAIEKVLKKTTPIPDLKGVMFV
B3: CP β-subunit from Archaeoglobus fulgidus (natural protein, UniProt Q9P996 12-213, looked up)
chain: TTTVGLVCKDGVVMATEKRATMGNFIASKAAKKIYQIADRMAMTTAGSVGDAQFLARIIKIEANLYEIRRERKPTVRAIATLTSNLLNSYRYFPYLVQLLIGGIDSEGKSIYSIDPIGGAIEEKDIVATGSGSLTAYGVLEDRFTPEIGVDEAVELAVRAIYSAMKRDSASGDGIDVVKITEDEFYQYSPEEVEQILAKFRK

Legend:
Experiment in all cases: cryo-EM structure
[1] = target: B2
cryo-EM structure [2] = target: the molecule itself
cryo-EM structure [3] = target: the molecule itself; remark: listed apart in the source
[4] = target: B1

Binder: B1
- binding result [1]: binds

Binder: B2
- stoichiometry N (cryo-EM structure [2]): 6

Binder: B3
- binding result (cryo-EM structure [3]): binds
- binding result [4]: binds
